The values below come from the RNAGym collection of RNA variant scans (doi:10.7554/elife.80360).

Sequences and labels used below:
B1: Twister Ribozyme (parent)
chain: AACACUGCCAAUGCCGGUCCCAAGCCCGGAUAAAAGUGGAGGGGGCGG

The variants in the series derive from B1. Kind of series: self-cleavage, relative activity (ratio to wild type); higher = more cleavage; co-transcriptional.
In the case of AACACUGCCAAUGCCGGUCCCAAGACCGGAUAAAGGUGGAGGGGGCGG, the self-cleavage was found to be 0.0612.

On to AACACUGUCAAUGGCGGUCCCAAGCCCGGAUAAAAGUGGAGGGGGCGG, for which the self-cleavage is 0.0673.

In the case of AACACUGCCAAUGCCGGUCCCAAGCCCGGAUAAAAGUGGAGGGUGUGG, the self-cleavage is 1.02.

As for AACACUGCCAAUUCCGGUUCCAAGCCCGGAUAAAAGUGGAGGGGGCGG, the self-cleavage turned out to be 0.0924.

As to AACACUGCCAAUGCCGGUCCCAAGCCCGGAUAAAAGUGGAGGGGAAGG, the self-cleavage was 0.714.

Take AACACUGCCAAUGCCGGUCCCAAGCGCGGAUAAAAGUGGAGGUGGCGG: the self-cleavage was determined as 0.138.

Turning to AACACUGCCAAGGCCGGUCCCAAACCCGGAUAAAAGUGGAGGGGGCGG, the self-cleavage is 0.177.

Take AACACUGCCAAUGCCGGUCCCAAGCCCGGAUAAAAGUGGAGGGGGCAG: the self-cleavage stood at 0.952.

As to AACACUGCCAAUUCCGGUCCCAAGCCCGGAUAAAAGUGGAGGGGGCUG, the self-cleavage was 0.197.

As to AACACUGCAAAUCCCGGUCCCAAGCCCGGAUAAAAGUGGAGGGGGCGG, the self-cleavage turned out to be 0.729.

Consider AACACUGCCAAUGCCGGUCCCAAGCCCGGAUAUAAGUGGAGGGGGAGG, for which the self-cleavage was determined as 0.851.

As to UACACUGCCAAUGCCGGUCCCUAGCCCGGAUAAAAGUGGAGGGGGCGG, the self-cleavage came out at 0.0726.

As for UACACUGCCAAUGCCGGUCCCAAGCCUGGAUAAAAGUGGAGGGGGCGG, the self-cleavage stood at 0.0591.

For the variant AGCACUGCCAGUGCCGGUCCCAAGCCCGGAUAAAAGUGGAGGGGGCGG, the self-cleavage came to 0.164.

On to AACACUGCCAAUGCCGGGCCCAAGCACGGAUAAAAGUGGAGGGGGCGG, for which the self-cleavage was 0.0682.

As for AACACUGCCAGUGCCGGUCCCAAGCCCGGAUAAAAGUGGAUGGGGCGG, the self-cleavage is 0.65.

With AACACUGCCAAUGCCGGUCCCAAGCCCGGAUAAACGUGGAAGGGGCGG, the self-cleavage was 0.611.

For the variant AACACUGCCAAUGCAAGUCCCAAGCCCGGAUAAAAGUGGAGGGGGCGG, the self-cleavage turned out to be 0.351.

On to AACACUGCCAAUGCAUGUCCCAAGCCCGGAUAAAAGUGGAGGGGGCGG, for which the self-cleavage worked out at 0.34.

On to AACACUGCUAAUGCCGGUCCCAAGCCCGGAUAAAAGUCGAGGGGGCGG, for which the self-cleavage was determined as 0.509.

For the variant AACACUGGCAAUGCCGGUCCCAAGCCCGUAUAAAAGUGGAGGGGGCGG, the self-cleavage is 0.156.

Regarding AACACUGCCAAUGCCGGUCCCAAGCCCGGAUAACAGUGGAGGCGGCGG, the self-cleavage worked out at 0.103.

AACACUGCCAAAGCCGGUCCCAAGCCCGGAUAAUAGUGGAGGGGGCGG: the self-cleavage was 0.984.

Regarding AACACUGCCAAUGGCGGUCCCAAGCCCGGAUAAAUGUGGAGGGGGCGG, the self-cleavage turned out to be 0.125.

As to AACACUACCAAUGCCGGUCCCAAGCCCGGAUAAAAGUGGAGGCGGCGG, the self-cleavage is 0.123.

Regarding AACACUGCCAAUGCCGGUCCCAAGCCCGGAUAAACGUGGCGGGGGCGG, the self-cleavage was found to be 0.154.

On to AACACUGCCAACGCCGGUCCCAAGCCCGGAUAAAAGUGGAGCGGGCGG, for which the self-cleavage is 0.486.

Consider AACACUGCCAAGGCCGGUCCCAAGCCCUGAUAAAAGUGGAGGGGGCGG, for which the self-cleavage is 0.464.

For the variant AACACUGCCAAUGCCGGUCCCAAGCCCGGAAAAAAGUGGAGGAGGCGG, the self-cleavage was found to be 0.23.

As for AACACUGCCAAUGCCGGUCCCAAGGCCGGAUUAAAGUGGAGGGGGCGG, the self-cleavage was 0.19.

AACACUGCCAAUGCCGGUCCCAAGCCCGUAUAUAAGUGGAGGGGGCGG: the self-cleavage is 0.911.

For AACACUGCCAAUGCCGGUCCCAAGCCCGGAUAGAUGUGGAGGGGGCGG, the self-cleavage was determined as 0.789.

Regarding AACACUGCCUAUGCCGGUCCCAAGCCCGGAUAAAUGUGGAGGGGGCGG, the self-cleavage is 0.89.

As for AACACUGCCAAUGCCGGUCCCAAGCCCUGAUAAAAGUGGAGGGGGCGU, the self-cleavage was found to be 0.809.

Take AACACUGCCAUUGCCGGUCCCAAGCGCGGAUAAAAGUGGAGGGGGCGG: the self-cleavage was found to be 0.31.

For the variant AACACUGCCAAUGCCGGUCCCAAGCCCGGAUAAAAGUGGAGGAGGCUG, the self-cleavage stood at 0.175.

With AACACUGCCAAUUCCAGUCCCAAGCCCGGAUAAAAGUGGAGGGGGCGG, the self-cleavage is 0.302.

For the variant AACACUGCCAAUGCCGCUCCCAAGCCCGGAUAUAAGUGGAGGGGGCGG, the self-cleavage was determined as 0.0842.

Take AACACUGCCAAUGCCGGUCCCAAGCCCGGAUAAAAGUGGAGGAGGCGA: the self-cleavage was 0.244.

In the case of AACACUGCCAAUGCCGGUCCCAAGCCCGGCGAAAAGUGGAGGGGGCGG, the self-cleavage is 0.839.

As to AACACUGCCAAUGCCGGUCCCAAGCCCGGAUAAAAGUGGAGCGGCCGG, the self-cleavage was 0.131.

As to AACACUGCCUAUGCCGGUCCCAAGCCCGGAUAAAAGUGGAGGGGGCAG, the self-cleavage amounted to 0.946.

On to AAUACUGCCAAUGCCGGUCCCAAACCCGGAUAAAAGUGGAGGGGGCGG, for which the self-cleavage stood at 0.0721.

For the variant AACACUGCCAAUGCCGGUCCUAAUCCCGGAUAAAAGUGGAGGGGGCGG, the self-cleavage amounted to 0.106.

For AACACUGCCAAUGCUGGUCCCAAGCCCGGAUAUAAGUGGAGGGGGCGG, the self-cleavage came out at 1.01.

For AACACUGCCAAUCCCGGUCCCAAGCCCGGAUAAAUGUGGAGGGGGCGG, the self-cleavage came out at 0.629.

With AACACUGCCAAUGCCGGUCCCAAGCCCGGAUAAAACUGGAGGGGACGG, the self-cleavage was found to be 0.37.

In the case of AACACUGCCGAUGCCGGUCCCAAGCCCGGAUUAAAGUGGAGGGGGCGG, the self-cleavage amounted to 1.01.

Consider AACAUUGCCGAUGCCGGUCCCAAGCCCGGAUAAAAGUGGAGGGGGCGG, for which the self-cleavage was found to be 0.869.

For the variant AACACUGCCAAUGCCGGUCCCAAGCCCGUAAAAAAGUGGAGGGGGCGG, the self-cleavage came to 0.999.

Turning to AACACUGCCAACCCCGGUCCCAAGCCCGGAUAAAAGUGGAGGGGGCGG, the self-cleavage was 0.453.

Regarding AACACUGCAAAUGCCGGUCCCAAGUCCGGAUAAAAGUGGAGGGGGCGG, the self-cleavage worked out at 0.185.

In the case of AACACUUCCAAUGCCGGUCCCAAGCCCGGAUAAAAGUGGAGGGGGCUG, the self-cleavage was 0.0775.

For AACAUUGCCAAUGCCGGUCGCAAGCCCGGAUAAAAGUGGAGGGGGCGG, the self-cleavage came to 0.102.
